Results as given in the nanobody polyreactivity screen of Harvey et al. (2022).

Assay: yeast display, Sf9 membrane polyspecificity reagent, FACS + sequencing; frameworks hold sequencing errors
Procedure, shortened: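 A synthetic nanobody library was expressed on Saccharomyces cerevisiae BJ5465 by galactose induction for 36–48 hours. The library was stained for 1 hour at 4 °C with 10% biotinylated, detergent-solubilized Sf9 membrane reagent and enriched with streptavidin microbeads before FACS. Low and high (top ~1%) gates were set on anti-HA fluorescence for expression and streptavidin fluorescence for reagent binding, and each polyreactivity label reflects the gate of origin.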

Row | Sequence | polyreactivity (PSR sort gate)
1 | QVQRVESRGGLVQAGGTLRLSCAASGSTFGVNAKGCYSQAPGKDRELVATISRGTSTNYADSVKGRFTISRDNAKNTVYLQMNSLKPEDTAVYYCAKRVFYPGAYRYYYCGQGTQVTVSS | high polyreactivity
2 | QVQVLESGGGLFQAGGRLRLSCAASGRTFRSYAMGWYRQAPGKERELVAAIRRGGSTNYADSVKGRFTISRDNAKNTVYLQMNSEKPEDTAVYYCAARGWSYRSVGYMDYWGQGTQVTVSS | high polyreactivity
3 | QVQVLESGGGLVQAGGSLRLSCAASGRTFYWNAMGWYRQAPGKERELDAVISQSGGSTYYADSVKGRFTISRDNAKNTVYLQMNSLQPEDTAVYYCNKATRHHFYYWGQGTQVTVSS | high polyreactivity
4 | QVQVVESGAGEVQAGGSLRLSCAASGSIFPFNAMGWYRQAPGKERELVAAISVNGGSTYYADSVKGRFTISRDNAKNTVYIQMNSLKPEDTAVYYCNTGGTFLDWVRRPFGFGYWGQGTQVTVSS | low polyreactivity
5 | QVQVVESGGALVQAGGSLRLSCAASGSTFYNYAMGWYRPAPGKERELVAAISSGGGITYYADSVKGRFTISRDNAKNNVYVQMNSLKPEDTAFYYCNARRKYLGYNYWGQGTQVTVSS | high polyreactivity
6 | QVQVVESGGGFVQAGGSLRISCAASGRIFATYAMGWYRQAPGKERELVAAISDSGGRTYYADSVKGRFTISRDTAKNTVYFQMNSLKPEDTAVYYCNARGTRASRYDYWGQGTQVTVSS | high polyreactivity
7 | QVQVVESGGGIVHAEGSLRLSCAPSGLTFPVYAMVWYRQAPRKERELVAAISKSGGNTYYADSVKGRFTISRDNAKNTVYLQMNSLKPEDTAVYYCAAGYLSGNYARYGYWGQGTQVTVSS | high polyreactivity
8 | QVQVVESGGGIVQAGGSLGLSCAASGSNFSYNAMGWYRQAPRKERELVATISNTDSTNYADSVKGRFTISRDNAKNTVYLQMNSLKPEDTAVYYCAVVSARIDYEYWGQGTQVTVSS | low polyreactivity
9 | QVQVVESGGGLVHAGGSHRLSCAASGSIFPPYSMGWYRQAPGKEREFVAAISYSGGSTYYADSVKGRFTISRDNGKHTVYFQMNSLKPEDTAVYYCGADRYGFYLESYYWGQGTQGTVSS | low polyreactivity
10 | QVQVVESGGGLVKAGGSLRLSCDASGSTFRDYVMGWYRQAPGKERELVAAITGSGSSTYYADSVKGRFTISRDNAKNSVYLQMNSLKPEDTAVYYCAATWVVSYRVNRSYYWGQGTQVTVSS | low polyreactivity
11 | QVQVVESGGGLVQAGGCLRLSCAASGVIFVGYAMGWYRQAPGKERELVAAISWSGGSTYYADSVKGRFTISRDKAKNTVYLQMNSLKPEDTAVYYCAAYLYGYEYWGQGTQVTVSS | high polyreactivity
12 | QVQVVESGGGLVQAGGRLRLSFAASGFTFESYAMGWYRQAPGKERELVPAISDGGGDTYYADSVKGRFTISRDNAKNTVYLQMNSLKPEDTAVYYCAAEWDGNWSRCAGGYDYWGQGTQVTVSS | low polyreactivity
13 | QVQVVESGGGLVQAGGSLGLSCAASGFTFGRYARGWYRQAPGKERELVAAISRGGSTYYADSVKGRFTISRDNAMYTDYLQMNSLKTEDTAVYYCNAAGLPTQLYYWGQGTQVTVSS | high polyreactivity
14 | QVQVVESGGGLVQAGGSLGLSCAASGRTFRVYAMGWYRQAPGKERELVASITRGGGTYADSVKGRFTISRDNAKNTVYLQMNCLKPEDTAVYYCNARWQRSTGGRQRYDYWGLGTQVTVSS | high polyreactivity
15 | QVQVVESGGGLVQAGGSLRISCAASGRISVVHAMGWYRQAPGKERELVATINSGGSTYADSVKGRFTNSRDNAKNNVFFQMISQIPEDTAFYYCSARTFRISRLDFWGQCTQVTVSS | high polyreactivity
16 | QVQVVESGGGLVQAGGSLRLSCAASGFIFRRYAMGWYRQAPGKEMELVAAINYSGGSTYYADSVKGRFTISRDNEKNTVYLQMKSLKPEDNAVYYCNAYGLRYYEYDYWGQGTQVTVSS | low polyreactivity
17 | QVQVVESGGGLVQAGGSLRLSCAASGFTIFSYAMGWYRQAPGKERELVAAISRRGGSTYYADSVKGRFTISRDNAKNTVYLQMNSLKPEDTAVYYCNAKWTSHGTYAEDYWGQGTQVTVSS | high polyreactivity
18 | QVQVVESGGGLVQAGGSLRLSCAASGGTDYYYAMGWYRQAPGKERELFAAITESGGSTYYADSVKARYTISRDNAKTTVYVQMNSLKPEDTAVYYCNADWRRWYIFSYDYWGQGTQVTVSS | low polyreactivity
19 | QVQVVESGGGLVQAGGSLRLSCAASGLISWLYVMGWYRQAPGKERELVAAIRYSGGRTYYADSVKGRFTISRDNAKNTDYLQMHSLKPEDTAVYYCNALPWALYDSTSIYYYWGQGTQVTVSS | low polyreactivity
20 | QVQVVESGGGLVQAGGSLRLSCAASGRIFNYNAMGWYRQAPGKERELVAAITRSGGSTYYADSVKGRFTISRDNAKNTVFLQMNSLKPEDTAVYYCNKRYIPWAYDYWGQGTQVTVSS | high polyreactivity
21 | QVQVVESGGGLVQAGGSLRLSCAASGRILYPYTMGWYRQAPGKERELVAAISYSGGRTYYADSVKGRFTISRDNAKNTVYLQMNRLKPEDTAVYYFNAVFRVRGASQFDYWGQGTQVTVSS | high polyreactivity
22 | QVQVVESGGGLVQAGGSLRLSCAASGRTFFFYAMGWYRQAPGKERELVAGITSRGTRTYYADSVKGRFTISRDNAKNTVYLQMNSLKPEDTAVYYCATDDSRDWLNYWGQGTQVTVSS | low polyreactivity

Row | Sequence | polyreactivity (PSR sort gate)
23 | QVQVVESGGGLVQAGGSLRLSCAASGRTFGPYAMGWFRQAPGKEREFVAAISYSGGSTYYADSVKWRFTISRDNAKNTVYLQMNSLKPEDTAVYYCAAEGDYYDFISPPLDYWGQGTQVTVAS | low polyreactivity
24 | QVQVVESGGGLVQAGGSLRLSCAASGRTFIGNAMGWYRQAPGKERELVAAMSRSGGSTSYADSVKGRFTISRDNAKNTVYLQMNSLKPEDTAVYYCAKGYRGYSYGYWGQGTQVSVSS | high polyreactivity
25 | QVQVVESGGGLVQAGGSLRLSCAASGRTFRKNAMGWYRQAPGKERELVAAISSGGGSTYYADSVKGRFTISRDNAKNSDYLQINSLKPEDTAVYYCAVLVWYYDGYYSSYDYWGQGTQVTVSS | high polyreactivity
26 | QVQVVESGGGLVQAGGSLRLSCAASGSIFGRYAMGWYRQAPGKERELVAGITRGGSPYYADSVKGRFTISRDNAKNTVYLQMNSLKPEDTAVYYCNRAARYGEYDYWGQGTQVTVSS | high polyreactivity
27 | QVQVVESGGGLVQAGGSLRLSCAASGSIFHNNAMGWYRQAPGKERELVASITSRGGSTYYADSVKGRFTISRDNAKNTVYLQMNSLKPEDTAVYYCAARPYARVKTHGYWGQGTQVSVSS | low polyreactivity
28 | QVQVVESGGGLVQAGGSLRLSCAASGSTFPVYAMGWYRQAPGKERELVAAISRSGASTYADSVKGRFTISRDNAKNTVYLQMNSLKPEDTAVYYCNKDPGNVSSYTGGGYWGQGTQVTVSS | low polyreactivity
29 | QVQVVESGGGLVQAGGSLRLSCAASGSTFRYYAMGWYRQAPGKERELVAGISKVGGRTYADSVKGRFTISRDNAKYTVYLQMNSLKTEDTAVYYCAADAVRRTPGYDYWGHGTQVTVSS | high polyreactivity
30 | QVQVVESGGGLVQAGGSLRLSCAASGSTFSSYVMGWYRQATGKERELVAAISSIGGSTYYADSVKGRFTISRDNAKITVYLQMNSLKPEDTAVYYCAAEPPGSTYEGGYWGQGTQVTVSS | low polyreactivity
31 | QVQVVESGGGLVQAGGSLRLSCAPSGRIFTIYVMGWYRQAPGKERELVATITYSSGSTTYADSVKGRFTISRDNAKNTVYLQMNSLKPEDTAVYYCAKKYYTGYGYWGQGTQVTVSS | low polyreactivity
32 | QVQVVESGGGLVQAVGSLRLSCAASGRIFRGNAMGWDRQAPRKERELVAAISRRSGSTYYADSVKGRFTISRDNAKNTVYLQMNSLIPEDTAVYYCAATSSLGDFSYDSWGQGTQVTESS | high polyreactivity
33 | QVQVVESGGGLVQPGGSLRLSCAASGSTFGGKAMGWYRQATGKERELVAGITSSGTSTYYADSVKGRFTISRDNAKNTVFLQMNSLKPEDTAVYYCATDEAVESYGFELFDYWGQGTQVTVSS | low polyreactivity
34 | QVQVVESGGGLVQPGGSLRVSCAASGSTFIAYVKGWSRQAPGKEWELVAAISWSGSNTYYADSVKGRFTISRDNAKITVYFQMNCLKPEDTAVYYCNARSFAPDKKYDYWGQGTQVTVSS | low polyreactivity
35 | QVRLVESAGGIVQAGGSLRLSCAASGRTFSVHAMGWYTQAPGKERELVAAISWDGGSTYYGDSVKGRFTISRDNSKNTVYLQMNSLKPEDTAVYYCYKELYYAYDYWGLGTQVTVSS | low polyreactivity
36 | QVRLVESGGGLVQAGGSLRLSCAASGRIFLYNARGWYRQAPGKERELVAAINLSDVDTYYADSVKGRFTISRDNAKNTVYLQMNSLKPEDTAVYYCAADGIYWSTIGYYWGQGTQVTVSS | low polyreactivity
37 | QVWLQESGGGLVQACGSLRLSCAASGTISRDIFMGWYRQAPGKEREFVATIAQGGITNYADSVKGRFTISRDNAKNTLYLQMNSVKPGDTAVYYCAARDGNCYWFYYWGQGTQVTVSS | high polyreactivity
38 | QVWLQESGGGLVQACGSLRLSCAASGTISRDIFMGWYRQAPGKEREFVATIAQGGITNYADSVKGRFTISRDNAKNTVYLQMNSVKPGDTAVYYCAARDGNCYWFYYGGQGTQVTVSS | high polyreactivity
39 | QYQLVESGGGLVQAGGSLRLICAASGRIINKKAMGRYRHAPGKERELVAAITSSGGSTYYADSVKGRFTISRDNAKNTVYLQMNSLKPEDTAVYYCAAYAYGRFGKLNYWGQGTQVTVSS | low polyreactivity
40 | QYQLVESGGGLVQAGGSLRLSCAASGSTFRANTMGWYRQAPGKERELVSTITRGTITKYADSVKGRFTISRDNAKNPVYLQMNSLKAEDTAVFDCAVDQAYVRRNWGYTGYVTYDHWGQGTQVTVSS | high polyreactivity
41 | QYQLVESGGGLVQAGGSLSLSCAASATTFSAYAMGWYRQAPGKERELVAAISASGGSTYYADSVKGRFTISRDNAKNTVYLQMNSLKPEDNAVYFCNADRWKYELDYCGQGTQVTVSS | high polyreactivity
42 | RVQLQESGGGLVQAGGSLRLSCAASGNIFDTDIMGWYRQAPGKESELVASITDGGSTTYADSEKGRFTISRDNAKNTVYLQMNSLKPEDTAVYYCAADQGRYGIIGWDDYWGQGTQVTVSS | low polyreactivity
43 | RVQLQESGGGLVQAGGSLRLSCAASGTIFIRGDMGWYRQAPGKEREFVASIDTGSNTYYADSEKGRFTISRDNAKNAVYLQMNCLKPGDTAVYYCVVDYQLSGRLRYWGQGTQVTLSS | low polyreactivity
